Reference: patent publication US20110262949A1

T1: wt β2 (E. coli class I ribonucleotide reductase subunit β2), P69924
T1 chain: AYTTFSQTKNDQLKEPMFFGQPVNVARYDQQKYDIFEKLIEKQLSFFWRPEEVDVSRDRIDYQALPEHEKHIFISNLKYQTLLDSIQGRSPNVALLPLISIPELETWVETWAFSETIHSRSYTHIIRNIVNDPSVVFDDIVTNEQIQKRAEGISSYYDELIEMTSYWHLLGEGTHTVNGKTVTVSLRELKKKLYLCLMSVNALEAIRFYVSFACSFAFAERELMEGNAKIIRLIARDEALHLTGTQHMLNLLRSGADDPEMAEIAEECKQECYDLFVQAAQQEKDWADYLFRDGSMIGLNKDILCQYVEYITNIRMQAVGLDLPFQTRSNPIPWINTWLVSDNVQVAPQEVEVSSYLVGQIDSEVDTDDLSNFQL


Tests used:
[1] = molecular target: T1, wt β2 (E. coli class I ribonucleotide …)
[2] = molecular target: wt β2 (E. coli class I ribonucleotide reductase subunit β2) (E. coli) (UniProt P69924); assay: cell-based or functional assay

| 1st Phase Ampl (% of total initial Y122• trapped) [2] [%] | 2nd Phase Ampl (% of total initial Y122• trapped) [2] [%] | EPR spin quantitation at 10 s with CDP/ATP: share of remaining spin in NH2Y731. [2] [%] | [NH2Y•] at 20 s in the reaction with β2 and N3ADP/dGTP (EPR) [2] [µM] | total initial Y122. consumed at 2 s [2] [%] | EPR spin quantitation at 10 s with CDP/ATP: share of remaining spin in the new signal (NH2Y730.) [2] [%] | Binder | 1st Phase kobs (SF UV-vis, NH2Y• formation / Y122• loss, with CDP/ATP) [1] | rate constant of NH2Y. formation at 325 nm, fast phase [1] [s⁻¹] | rate constant of NH2Y. formation at 325 nm, slow phase [1] [s⁻¹] | rate constant of Y122. loss at 410 nm, fast phase [1] [s⁻¹] | rate constant of Y122. loss at 410 nm, slow phase [1] [s⁻¹] | 2nd Phase kobs (SF UV-vis, NH2Y• formation / Y122• loss, with CDP/ATP) ([1]; in 1/s) |
| --- | --- | --- | --- | --- | --- | --- | --- | --- | --- | --- | --- | --- |
|  |  |  |  |  |  | Y730NH2Y-α2 (E. coli class I ribonucleotide reductase subunit α2 with 3-aminotyrosine at residue 730) (protein) MNQNLLVTKRDGSTERINLDKIHRVLDWAAEGLHNVSISQVELRSHIQFYDGIKTSDIHETIIKAAADLISRDAPDYQYLAARLAIFHLRKKAYGQFEPPALYDHVVKMVEMGKYDNHLLEDYTEEEFKQMDTFIDHDRDMTFSYAAVKQLEGKYLVQNRVTGEIYESAQFLYILVAACLFSNYPRETRLQYVKRFYDAVSTFKISLPTPIMSGVRTPTRQFSSCVLIECGDSLDSINATSSAIVKYVSQRAGIGINAGRIRALGSPIRGGEAFHTGCIPFYKHFQTAVKSCSQGGVRGGAATLFYPMWHLEVESLLVLKNNRGVEGNRVRHMDYGVQINKLMYTRLLKGEDITLFSPSDVPGLYDAFFADQEEFERLYTKYEKDDSIRKQRVKAVELFSLMMQERASTGRIYIQNVDHCNTHSPFDPAIAPVRQSNLCLEIALPTKPLNDVNDENGEIALCTLSAFNLGAINNLDELEELAILAVRALDALLDYQDYPIPAAKRGAMGRRTLGIGVINFAYYLAKHGKRYSDGSANNLTHKTFEAIQYYLLKASNELAKEQGACPWFNETTYAKGILPIDTYKKDLDTIANEPLHYDWEALRESIKTHGLRNSTLSALMPSETSSQISNATNGIEPPRGYVSIKASKDGILRQVVPDYEHLHDAYELLWEMPGNDGYLQLVGIMQKFIDQSISANTNYDPSRFPSGKVPMQQLLKDLLTAYKFGVKTLYYQNTRDGAEDAQDDLVPSIQDDGCESGACKI | 12.8 ± 0.8, 20 ± 1 | 13.6 ± 0.1 | 2.5 ± 0.1 | 12.0 ± 0.1 | 2.4 ± 0.1 | 2.5 ± 0.1, 19 ± 1 |
| 24 | 11 | 45 | 7.1 | 35 |  | Y731NH2Y-α2 (E. coli class I ribonucleotide reductase subunit α2 with 3-aminotyrosine at residue 731) (enzyme, UniProt P00452 1-761, looked up, 3-aminotyrosine (NH2Y) at position 731 in place of Tyr (E. coli RNR numbering)) MNQNLLVTKRDGSTERINLDKIHRVLDWAAEGLHNVSISQVELRSHIQFYDGIKTSDIHETIIKAAADLISRDAPDYQYLAARLAIFHLRKKAYGQFEPPALYDHVVKMVEMGKYDNHLLEDYTEEEFKQMDTFIDHDRDMTFSYAAVKQLEGKYLVQNRVTGEIYESAQFLYILVAACLFSNYPRETRLQYVKRFYDAVSTFKISLPTPIMSGVRTPTRQFSSCVLIECGDSLDSINATSSAIVKYVSQRAGIGINAGRIRALGSPIRGGEAFHTGCIPFYKHFQTAVKSCSQGGVRGGAATLFYPMWHLEVESLLVLKNNRGVEGNRVRHMDYGVQINKLMYTRLLKGEDITLFSPSDVPGLYDAFFADQEEFERLYTKYEKDDSIRKQRVKAVELFSLMMQERASTGRIYIQNVDHCNTHSPFDPAIAPVRQSNLCLEIALPTKPLNDVNDENGEIALCTLSAFNLGAINNLDELEELAILAVRALDALLDYQDYPIPAAKRGAMGRRTLGIGVINFAYYLAKHGKRYSDGSANNLTHKTFEAIQYYLLKASNELAKEQGACPWFNETTYAKGILPIDTYKKDLDTIANEPLHYDWEALRESIKTHGLRNSTLSALMPSETSSQISNATNGIEPPRGYVSIKASKDGILRQVVPDYEHLHDAYELLWEMPGNDGYLQLVGIMQKFIDQSISANTNYDPSRFPSGKVPMQQLLKDLLTAYKFGVKTLYYQNTRDGAEDAQDDLVPSIQDDGCESGACKI |  |  |  |  |  |  |
| 20 | 19 |  | 7.6 | 39 | 53 | Y730NH2Y-α2 (E. coli class I ribonucleotide reductase subunit α2 with 3-aminotyrosine at residue 730) (enzyme, UniProt P00452 1-761, looked up, 3-aminotyrosine (NH2Y) at position 730 in place of Tyr (E. coli RNR numbering)) MNQNLLVTKRDGSTERINLDKIHRVLDWAAEGLHNVSISQVELRSHIQFYDGIKTSDIHETIIKAAADLISRDAPDYQYLAARLAIFHLRKKAYGQFEPPALYDHVVKMVEMGKYDNHLLEDYTEEEFKQMDTFIDHDRDMTFSYAAVKQLEGKYLVQNRVTGEIYESAQFLYILVAACLFSNYPRETRLQYVKRFYDAVSTFKISLPTPIMSGVRTPTRQFSSCVLIECGDSLDSINATSSAIVKYVSQRAGIGINAGRIRALGSPIRGGEAFHTGCIPFYKHFQTAVKSCSQGGVRGGAATLFYPMWHLEVESLLVLKNNRGVEGNRVRHMDYGVQINKLMYTRLLKGEDITLFSPSDVPGLYDAFFADQEEFERLYTKYEKDDSIRKQRVKAVELFSLMMQERASTGRIYIQNVDHCNTHSPFDPAIAPVRQSNLCLEIALPTKPLNDVNDENGEIALCTLSAFNLGAINNLDELEELAILAVRALDALLDYQDYPIPAAKRGAMGRRTLGIGVINFAYYLAKHGKRYSDGSANNLTHKTFEAIQYYLLKASNELAKEQGACPWFNETTYAKGILPIDTYKKDLDTIANEPLHYDWEALRESIKTHGLRNSTLSALMPSETSSQISNATNGIEPPRGYVSIKASKDGILRQVVPDYEHLHDAYELLWEMPGNDGYLQLVGIMQKFIDQSISANTNYDPSRFPSGKVPMQQLLKDLLTAYKFGVKTLYYQNTRDGAEDAQDDLVPSIQDDGCESGACKI |  |  |  |  |  |  |
